Here are results for two molecules from PMC3268005 (Journal of the American Chemical Society, 2011).

In data set [1] the target is Candida albicans cytosolic manganese superoxide dismutase (CaMnSODc) (Candida albicans). Nature of the data set: crystal structure.
Data set [2] has the same target. Nature of the data set: SEC. For orientation: SEC sorts molecules by how far they enter the pores of the column.
Data set [3] shares this target. Nature of the data set: crystal structure. The source holds these as a separate data set.
Data set [4] concerns the molecule itself. As to the kind of experiment: SEC.

In general, stoichiometry N refers to the number of molecules, sites or subunits per partner or assembly. Consider “Candida albicans cytosolic manganese superoxide dismutase (CaMnSODc) (enzyme)”, for which the stoichiometry N was 2 in data set [1], 2 in data set [2] and 4 in data set [3].

B1: Saccharomyces cerevisiae mitochondrial manganese superoxide dismutase (ScMnSOD) (enzyme, UniProt P00447 27-233, looked up)
chain: KVTLPDLKWDFGALEPYISGQINELHYTKHHQTYVNGFNTAVDQFQELSDLLAKEPSPANARKMIAIQQNIKFHGGGFTNHCLFWENLAPESQGGGEPPTGALAKAIDEQFGSLDELIKLTNTKLAGVQGSGWAFIVKNLSNGGKLDVVQTYNQDTVTGPLVPLVAIDAWEHAYYLQYQNKKADYFKAIWNVVNWKEASRRFDAGKI
B1: the “stoichiometry N” value in data set [4] is 4.
